# Where two headings read alike, the source gives them in different places. Square brackets hold non-standard residues; d marks the D form. Ends that are not written are not given here.
# Target: tetrameric transthyretin (TTR) (Homo sapiens, UniProt P02766)
# Assay: In-solution kinetics analysis of TTR-Aβ interactions via OpenSPR
# Assay type: binding
# Settings: for koff: dissociation rate constant
# Procedure: One of the most common applications of SPR is the analysis and quantification of the interactions between proteins. SPR experiments were performed using a Nicoya Lifesciences OpenSPR system equipped with a COOH chip. Following the start-up procedure found in the OpenSPR™ manual, setup the OpenSPR™ instrument and load a COOH Sensor Chip. The COOH surface was activated following the instructions included in the Amine kit. The ligand was diluted to a concentration of 45 μg/mL into immobilization buffer (provided by Nicoya Lifesciences, pH 4.5) and 100 μL was injected at 20 μL/min for a 5-min interaction time. […] Immobilization was monitored via absorbance change in a standard solution of filtered buffer (PBS, pH 6.8, with 0.005% Tween 20) for 5 min at a flow rate of 50 μl/min. The surface was blocked with an injection of 100 μL of blocking buffer (provided by Nicoya Lifesciences, 1 M ethanolamine, pH 8.5). […] An association time of 150 s and a dislocation time of 400 s were used. The surface was regenerated with an injection of regeneration buffer (HCl 10 mM, pH 2.0) at a speed of 150 μL/min between each analyte injection. The chip was washed in 10 mM HCl (pH 2.0) to remove impurities. Data were collected at a rate of 5 Hz and was single referenced with blank injections. Data were fit to a 1:1 interaction model using the analysis software TraceDrawer.
# [1] = OpenSPR, association rate constant, immobilized TTR, PBS pH 6.8, 0.005% Tween 20, 1:1 model, average of three ± SD
# [2] = OpenSPR, immobilized TTR, PBS pH 6.8, 0.005% Tween 20, 1:1 model, average of three ± SD
# [3] = OpenSPR, Replicate #1, read-out: ka
# [4] = OpenSPR, Replicate #2, read-out: ka
# [5] = OpenSPR, Replicate #3, read-out: ka
# [6] = pH 6.8, OpenSPR, association rate constant, immobilized TTR, PBS pH 6.8, 0.005% Tween 20, 1:1 model, average of three ± SD, read-out: Ka (1/(M*s)) × 10^−2
"Kd (OpenSPR, Replicate #1)","ka (OpenSPR, Replicate #1)","kd (OpenSPR, Replicate #1)","Kd (OpenSPR, Replicate #2)","ka (OpenSPR, Replicate #2)","kd (OpenSPR, Replicate #2)","Kd (OpenSPR, Replicate #3)","ka (OpenSPR, Replicate #3)","kd (OpenSPR, Replicate #3)",Ka (1/(M*s)) × 10^−2 [1],koff [2],Compound,kon [3],kon [4],kon [5],"binding dissociation rate constant higher than the WT Aβ (17–36) fragment (OpenSPR, tetrameric TTR, relative to WT Aβ (17–36))",kon [6]
86.9 µM,1660 M⁻¹ s⁻¹,0.144 s⁻¹,220 µM,657 M⁻¹ s⁻¹,0.144 s⁻¹,47.3 µM,1150 M⁻¹ s⁻¹,0.0546 s⁻¹,11.6 ± 2.5 1/(M*s) × 10^−2,11.4 ± 2.6 1/s × 10^2,dS Aβ (17–36): Aβ (17–36) with D-isomerized Ser (LVFFAEDVG[dS]NKGAIIGLMV),–,–,–,–,–
–,–,–,–,–,–,–,–,–,–,–,CC[C@H](C)[C@H](NC(=O)[C@H](C)NC(=O)CNC(=O)[C@H](CCCCN)NC(=O)[C@H](CC(N)=O)NC(=O)[C@@H](CO)NC(=O)CNC(=O)[C@@H](NC(=O)[C@@H](CC(=O)O)NC(=O)[C@H](CCC(=O)O)NC(=O)[C@H](C)NC(=O)[C@H](Cc1ccccc1)NC(=O)[C@H](Cc1ccccc1)NC(=O)[C@@H](NC(=O)[C@@H](N)CC(C)C)C(C)C)C(C)C)C(=O)N[C@H](C(=O)NCC(=O)N[C@@H](CC(C)C)C(=O)N[C@@H](CCSC)C(=O)N[C@H](C(=O)O)C(C)C)[C@@H](C)CC [dDdS Aβ (17–36)],3490 M⁻¹ s⁻¹,818 M⁻¹ s⁻¹,1470 M⁻¹ s⁻¹,~ 13 folds,1930 ± 700 M⁻¹ s⁻¹
116 µM,1720 M⁻¹ s⁻¹,0.199 s⁻¹,199 µM,489 M⁻¹ s⁻¹,0.0975 s⁻¹,133 µM,753 M⁻¹ s⁻¹,0.1 s⁻¹,9.9 ± 3.2 1/(M*s) × 10^−2,13.2 ± 2.9 1/s × 10^2,dD Aβ (17–36): Aβ (17–36) with D-isomerized Asp (LVFFAE[dD]VGSNKGAIIGLMV),–,–,–,–,–
–,–,–,–,–,–,–,–,–,–,–,CC[C@H](C)[C@H](NC(=O)[C@H](C)NC(=O)CNC(=O)[C@H](CCCCN)NC(=O)[C@H](CC(N)=O)NC(=O)[C@H](CO)NC(=O)CNC(=O)[C@@H](NC(=O)[C@H](CC(=O)O)NC(=O)[C@H](CCC(=O)O)NC(=O)[C@H](C)NC(=O)[C@H](Cc1ccccc1)NC(=O)[C@H](Cc1ccccc1)NC(=O)[C@@H](NC(=O)[C@@H](N)CC(C)C)C(C)C)C(C)C)C(=O)N[C@H](C(=O)NCC(=O)N[C@@H](CC(C)C)C(=O)N[C@@H](CCSC)C(=O)N[C@H](C(=O)O)C(C)C)[C@@H](C)CC [WT Aβ (17–36)],886 M⁻¹ s⁻¹,586 M⁻¹ s⁻¹,603 M⁻¹ s⁻¹,–,690 ± 80 M⁻¹ s⁻¹
